Data on 1 molecule can be found in paper PMC4673130.

In the assay the target is T1, HA-tetherin (wild type), Q10589.
T1 chain: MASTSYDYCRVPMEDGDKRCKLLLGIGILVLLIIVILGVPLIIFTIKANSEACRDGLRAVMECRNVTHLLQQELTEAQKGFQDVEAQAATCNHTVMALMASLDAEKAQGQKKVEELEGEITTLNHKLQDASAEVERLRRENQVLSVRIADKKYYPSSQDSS
As to the kind of experiment: non-reducing SDS-PAGE and immunoblot; lysates of HEK293 cells transfected with HA-tetherin with or without SHBs plasmids; SDS-PAGE in the absence or presence of 2-mercaptoethanol, blot with anti-HA; dimer and monomer bands. Conditions: remark: other sources report otherwise. In general terms: Immunoblotting shows a protein as a band on a membrane.

B1: HA-tetherin (wild type), Q10589 1-161 (natural protein)
chain: MASTSYDYCRVPMEDGDKRCKLLLGIGILVLLIIVILGVPLIIFTIKANSEACRDGLRAVMECRNVTHLLQQELTEAQKGFQDVEAQAATCNHTVMALMASLDAEKAQGQKKVEELEGEITTLNHKLQDASAEVERLRRENQVLSVRIADKKYYPSSQDSS
One may read the stoichiometry N as the number of molecules, sites or subunits per partner or assembly. B1: the stoichiometry N was determined as 2.
